T1: KOD DNA polymerase (DNA polymerase derived from Thermococcus kodakaraensis KOD1) (Thermococcus kodakaraensis KOD1, UniProt P77933 1-1671)
T1 sequence: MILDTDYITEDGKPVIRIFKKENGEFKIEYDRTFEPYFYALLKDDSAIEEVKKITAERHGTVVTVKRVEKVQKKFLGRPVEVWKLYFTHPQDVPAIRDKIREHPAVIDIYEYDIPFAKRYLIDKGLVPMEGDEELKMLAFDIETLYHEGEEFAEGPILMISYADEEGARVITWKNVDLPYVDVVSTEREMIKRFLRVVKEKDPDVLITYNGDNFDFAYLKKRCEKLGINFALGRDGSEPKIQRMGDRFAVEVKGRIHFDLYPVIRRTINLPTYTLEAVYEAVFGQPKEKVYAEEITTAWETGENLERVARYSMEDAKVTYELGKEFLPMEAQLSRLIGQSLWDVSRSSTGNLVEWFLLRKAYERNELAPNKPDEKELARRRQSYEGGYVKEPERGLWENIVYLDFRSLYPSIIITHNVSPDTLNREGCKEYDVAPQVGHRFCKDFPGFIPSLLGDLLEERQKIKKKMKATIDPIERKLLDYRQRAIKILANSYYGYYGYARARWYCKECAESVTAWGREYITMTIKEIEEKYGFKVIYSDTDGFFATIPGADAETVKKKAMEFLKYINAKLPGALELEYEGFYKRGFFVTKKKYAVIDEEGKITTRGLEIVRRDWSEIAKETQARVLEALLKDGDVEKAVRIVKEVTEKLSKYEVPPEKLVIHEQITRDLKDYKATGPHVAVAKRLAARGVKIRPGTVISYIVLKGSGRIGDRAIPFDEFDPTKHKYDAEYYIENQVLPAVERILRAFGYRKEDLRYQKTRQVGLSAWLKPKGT


Experiments:
M13 single-stranded DNA = conditions: Takagi et al. 1997; cited from earlier work
pMol 21 = conditions: PCR product fidelity, rpsL / pMol 21 method; cited from earlier work
[1] = target: T1, KOD DNA polymerase (DNA polymerase …); assay: cell-based or functional assay
[2] = target: the molecule itself; assay: gel filtration HPLC (TSKgel G3000SW), molecular weight against standard samples

| DNA elongation rate relative to the sample with no PCNA added [1] [times] | Molecule | DNA elongation rate (M13 single-stranded DNA) [bases/second] | mutation rate (pMol 21) [%] | binding result [2] |
| --- | --- | --- | --- | --- |
| – | Taq polymerase: DNA polymerase derived from Thermus aquaticus | 61.0 | ≥ 4 | – |
| – | Pfu polymerase: DNA polymerase derived from Pyrococcus furiosus (protein, UniProt P61875 1-775, looked up) DNA polymerase: MILDVDYITEEGKPVIRLFKKENGKFKIEHDRTFRPYIYALLRDDSKIEEVKKITGERHGKIVRIVDVEKVEKKFLGKPITVWKLYLEHPQDVPTIREKVREHPAVVDIFEYDIPFAKRYLIDKGLIPMEGEEELKILAFDIETLYHEGEEFGKGPIIMISYADENEAKVITWKNIDLPYVEVVSSEREMIKRFLRIIREKDPDIIVTYNGDSFDFPYLAKRAEKLGIKLTIGRDGSEPKMQRIGDMTAVEVKGRIHFDLYHVITRTINLPTYTLEAVYEAIFGKPKEKVYADEIAKAWESGENLERVAKYSMEDAKATYELGKEFLPMEIQLSRLVGQPLWDVSRSSTGNLVEWFLLRKAYERNEVAPNKPSEEEYQRRLRESYTGGFVKEPEKGLWENIVYLDFRALYPSIIITHNVSPDTLNLEGCKNYDIAPQVGHKFCKDIPGFIPSLLGHLLEERQKIKTKMKETQDPIEKILLDYRQKAIKLLANSFYGYYGYAKARWYCKECAESVTAWGRKYIELVWKELEEKFGFKVLYIDTDGLYATIPGGESEEIKKKALEFVKYINSKLPGLLELEYEGFYKRGFFVTKKRYAVIDEEGKVITRGLEIVRRDWSEIAKETQARVLETILKHGDVEEAVRIVKEVIQKLANYEIPPEKLAIYEQITRPLHEYKAIGPHVAVAKKLAAKGVKIKPGMVIGYIVLRGDGPISNRAILAEEYDPKKHKYDAEYYIENQVLPAVLRILEGFGYRKEDLRYQKTRQVGLTSWLNIKKS | 24.8 | – | – |
| ~3 | KOD-PCNA (proliferating cell nuclear antigen) derived from Thermococcus kodakaraensis KOD1 (other, also called KOD-PCNA protein; KOD-PCNA complex) PFEVVFDGAKEFADLIATASNLIDEAAFKFTEEGISMRAMDPSRVVLIDLNLPESIFSKYEVEEPETIGINMDQFKKILKRGKAKDTLILRKGDENFLEITFEGTAKRTFRLPLIDVEELELELPELPFTAKVVLLGEVLKEGIKDASLVSDAIKFIAKENEFTMKAEGETNEVEIRLTLEDEGLLDLEVEEETKSAYGISYLSDMVKGIGKADEVILRFGNEMPLQMEYMIRDEGRLTFLLAPRVEE | – | – | binds |
